Data on 1 protein can be found in paper PMC3376194.

Substrate in the series: CCCCC/C=C\C/C=C\C/C=C\C/C=C\CCCC(=O)O
In words: cells, lysate or membranes named. The following applies: other: R53H, 0.025% Tween 20, 37 °C.

B1: PGHS-1 R53H variant (Homo sapiens; R53H) (protein)
chain: ADPGAPTPVNPCCYYPCQHQGICVRFGLDHYQCDCTRTGYSGPNCTIPGLWTWLRNSLRPSPSFTHFLLTHGRWFWEFVNATFIREMLMRLVLTVRSNLIPSPPTYNSAHDYISWESFSNVSYYTRILPSVPKDCPTPMGTKGKKQLPDAQLLARRFLLRRKFIPDPQGTNLMFAFFAQHFTHQFFKTSGKMGPGFTKALGHGVDLGHIYGDNLERQYQLRLFKDGKLKYQVLDGEMYPPSVEEAPVLMHYPRGIPPQSQMAVGQEVFGLLPGLMLYATLWLREHNRVCDLLKAEHPTWGDEQLFQTTRLILIGETIKIVIEEYVQQLSGYFLQLKFDPELLFGVQFQYRNRIAMEFNHLYHWHPLMPDSFKVGSQEYSYEQFLFNTSMLVDYGVEALVDAFSRQIAGRIGGGRNMDHHILHVAVDVIRESREMRLQPFNEYRKRFGMKPYTSFQELVGEKEMAAELEELYGDIDALEFYPGLLLEKCHPNSIFGESMIEIGAPFSLKGLLGNPICSPEYWKPSTFGGEVGFNIVKTATLKKLVCLNTKTCPYVSFRVPDASQDDGPAVERPSTEL
As to B1, the Km (in general, the substrate concentration at which the rate is half of its maximum) was found to be 1.9 ± 0.2 µM.
